Measured values taken from patent US20150346200A1.

Molecular target: anti-human β-tryptase antibody
Assay: sandwich ELISA dose response: plate coated with anti-human β-tryptase antibody, β-tryptase calibrator titrated, detected with AP-conjugated anti-human β-tryptase, luminescence

EC50: 0.065 µg/mL
Substance: human β-tryptase (from UniProt Q15661 31-275) (enzyme)
